Reference: patent US20260176603, “TYPE II CAS PROTEINS AND APPLICATIONS THEREOF” (Alia Therapeutics Srl, published 2026)

T1: BDLP Type II Cas (metagenomic)
T1 chain: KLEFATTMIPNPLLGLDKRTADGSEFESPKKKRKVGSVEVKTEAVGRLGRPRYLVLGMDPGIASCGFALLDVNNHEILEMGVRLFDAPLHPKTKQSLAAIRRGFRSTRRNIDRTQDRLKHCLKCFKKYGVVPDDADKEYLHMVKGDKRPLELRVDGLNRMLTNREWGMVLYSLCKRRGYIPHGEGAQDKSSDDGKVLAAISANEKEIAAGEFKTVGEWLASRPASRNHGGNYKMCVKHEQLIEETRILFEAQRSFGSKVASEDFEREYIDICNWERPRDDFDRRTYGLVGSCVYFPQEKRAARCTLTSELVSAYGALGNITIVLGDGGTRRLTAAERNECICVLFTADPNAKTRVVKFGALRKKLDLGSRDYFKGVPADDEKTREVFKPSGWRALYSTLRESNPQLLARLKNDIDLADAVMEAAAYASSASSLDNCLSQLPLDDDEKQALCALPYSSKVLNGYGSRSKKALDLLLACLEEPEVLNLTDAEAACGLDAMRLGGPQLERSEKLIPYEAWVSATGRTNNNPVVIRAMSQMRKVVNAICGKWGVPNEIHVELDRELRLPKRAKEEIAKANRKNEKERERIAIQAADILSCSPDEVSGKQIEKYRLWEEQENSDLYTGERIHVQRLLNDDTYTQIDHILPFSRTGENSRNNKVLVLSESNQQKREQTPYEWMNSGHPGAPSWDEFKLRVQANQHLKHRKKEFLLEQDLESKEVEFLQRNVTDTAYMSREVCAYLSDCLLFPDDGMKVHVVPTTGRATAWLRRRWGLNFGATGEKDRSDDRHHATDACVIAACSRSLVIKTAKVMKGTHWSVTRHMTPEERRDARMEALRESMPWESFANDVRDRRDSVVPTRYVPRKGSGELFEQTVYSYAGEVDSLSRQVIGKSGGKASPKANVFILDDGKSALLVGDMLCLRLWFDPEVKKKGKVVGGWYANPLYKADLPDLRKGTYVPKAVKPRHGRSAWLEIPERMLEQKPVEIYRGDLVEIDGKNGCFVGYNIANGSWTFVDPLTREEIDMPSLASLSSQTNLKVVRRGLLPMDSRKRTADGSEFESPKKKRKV

T2: EQSC Type II Cas (metagenomic)
T2 chain: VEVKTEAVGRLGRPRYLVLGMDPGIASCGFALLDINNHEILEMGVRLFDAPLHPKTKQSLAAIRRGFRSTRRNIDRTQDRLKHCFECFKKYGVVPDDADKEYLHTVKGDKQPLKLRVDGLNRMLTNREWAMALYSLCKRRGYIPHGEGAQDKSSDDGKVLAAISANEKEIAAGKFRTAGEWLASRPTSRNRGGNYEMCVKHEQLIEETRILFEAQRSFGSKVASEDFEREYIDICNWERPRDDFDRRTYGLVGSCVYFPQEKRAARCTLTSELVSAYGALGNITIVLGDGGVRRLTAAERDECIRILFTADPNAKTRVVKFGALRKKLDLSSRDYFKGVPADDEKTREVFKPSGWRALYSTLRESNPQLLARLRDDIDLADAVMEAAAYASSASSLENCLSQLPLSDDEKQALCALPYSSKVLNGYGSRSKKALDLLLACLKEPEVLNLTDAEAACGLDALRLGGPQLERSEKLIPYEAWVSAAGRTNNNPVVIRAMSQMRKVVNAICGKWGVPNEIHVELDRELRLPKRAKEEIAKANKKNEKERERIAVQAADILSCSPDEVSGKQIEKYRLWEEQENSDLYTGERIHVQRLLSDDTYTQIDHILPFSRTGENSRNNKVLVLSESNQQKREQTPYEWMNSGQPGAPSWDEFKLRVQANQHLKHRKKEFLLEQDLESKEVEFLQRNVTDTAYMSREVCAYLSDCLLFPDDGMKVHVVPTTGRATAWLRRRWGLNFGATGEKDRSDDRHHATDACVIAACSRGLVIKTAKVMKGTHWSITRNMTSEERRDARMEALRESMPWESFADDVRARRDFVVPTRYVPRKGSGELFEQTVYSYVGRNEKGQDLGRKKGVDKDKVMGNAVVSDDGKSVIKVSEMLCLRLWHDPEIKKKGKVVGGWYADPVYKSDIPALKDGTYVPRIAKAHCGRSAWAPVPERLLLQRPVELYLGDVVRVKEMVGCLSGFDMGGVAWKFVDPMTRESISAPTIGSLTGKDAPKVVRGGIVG

B1: gRNA-BDLP-EGFP-g1 ; EGFP target BDLP g1 (ssRNA ; dsDNA)
RNA: GCCCAUCCUGGUCGAGCUGGACGGGUCUUGAGCUCGGAAACGAGACUCCAGACAAGGGGAGUCUACAACAGUAGGUUCACCCGUAGGGUUACCCCCGCGUCAUCCUCGGAAGGCGCGGGGCGAACUCUUUUUU
DNA 1: GGTGCCCATCCTGGTCGAGCTGGACGGCGACGTAAA
DNA 2: TTTACGTCGCCGTCCAGCTCGACCAGGATGGGCACC
B2: gRNA-EQSC-EGFP-g2 ; EGFP target EQSC g2 (ssRNA ; dsDNA)
RNA: UGCAGAUGAACUUCAGGGUCAGCGUCUUGAGCUCGGAAACGAGACUCCAGACAAGGGGAACCUACAACGGUAGGUUCACCCGUAGGGUUACCCCCGCGUCAUCUUCGGAAGGCGCGGGGCGAACUCUUUUUU
DNA 1: TGGTGCAGATGAACTTCAGGGTCAGCTTGCCGTAGGT
DNA 2: ACCTACGGCAAGCTGACCCTGAAGTTCATCTGCACCA
B3: gRNA-EQSC-EGFP-g1 ; EGFP target EQSC g1 (ssRNA ; dsDNA)
RNA: GCCCAUCCUGGUCGAGCUGGACGGUCUUGAGCUCGGAAACGAGACUCCAGACAAGGGGAACCUACAACGGUAGGUUCACCCGUAGGGUUACCCCCGCGUCAUCUUCGGAAGGCGCGGGGCGAACUCUUUUUU
DNA 1: GGTGCCCATCCTGGTCGAGCTGGACGGCGACGTAAAC
DNA 2: GTTTACGTCGCCGTCCAGCTCGACCAGGATGGGCACC
B4: gRNA-BDLP-EGFP-g2 ; EGFP target BDLP g2 (ssRNA ; dsDNA)
RNA: GGGGUAGCGGCUGAAGCACUGCAGUCUUGAGCUCGGAAACGAGACUCCAGACAAGGGGAGUCUACAACAGUAGGUUCACCCGUAGGGUUACCCCCGCGUCAUCCUCGGAAGGCGCGGGGCGAACUCUUUUUU
DNA 1: GTCGGGGTAGCGGCTGAAGCACTGCACGCCGTAGG
DNA 2: CCTACGGCGTGCAGTGCTTCAGCCGCTACCCCGAC
B5: gRNA-BDLP-EGFP-g3 ; EGFP target BDLP g3 (ssRNA ; dsDNA)
RNA: GUAGUUGCCGUCGUCCUUGAAGAAGUCUUGAGCUCGGAAACGAGACUCCAGACAAGGGGAGUCUACAACAGUAGGUUCACCCGUAGGGUUACCCCCGCGUCAUCCUCGGAAGGCGCGGGGCGAACUCUUUUUU
DNA 1: CTTGTAGTTGCCGTCGTCCTTGAAGAAGATGGTGCG
DNA 2: CGCACCATCTTCTTCAAGGACGACGGCAACTACAAG
B6: gRNA-EQSC-EGFP-g3 ; EGFP target EQSC g3 (ssRNA ; dsDNA)
RNA: GCACGACUUCUUCAAGUCCGCCAGUCUUGAGCUCGGAAACGAGACUCCAGACAAGGGGAACCUACAACGGUAGGUUCACCCGUAGGGUUACCCCCGCGUCAUCUUCGGAAGGCGCGGGGCGAACUCUUUUUU
DNA 1: GCAGCACGACTTCTTCAAGTCCGCCATGCCCGAAGGC
DNA 2: GCCTTCGGGCATGGCGGACTTGAAGAAGTCGTGCTGC

Tests used:
BDLP Type II Cas = target: T1, BDLP Type II Cas; experiment: cell_activity; PAM NNNNGT; U2OS-EGFP; conditions: tags: N-terminal SV5 tag and NLS, C-terminal NLS
EQSC Type II Cas = target: T2, EQSC Type II Cas; experiment: cell_activity; PAM NNNNCNNA; U2OS-EGFP; conditions: tags: N-terminal SV5 tag and NLS, C-terminal NLS

Row | Binder | activity (BDLP Type II Cas) [% EGFP KO] | activity (EQSC Type II Cas) [% EGFP KO]
1 | B1 | > 90 | 
2 | B2 |  | > 90
3 | B3 |  | > 90
4 | B4 | > 90 | 
5 | B5 | > 90 | 
6 | B6 |  | > 90
